Source: article PMC13087191 (Scientific Reports, 2026)

B1: UBXN7-SBP (natural protein, human, UniProt O94888 1-489, looked up)
chain: MAAHGGSAASSALKGLIQQFTTITGASESVGKHMLEACNNNLEMAVTMFLDGGGIAEEPSTSSASVSTVRPHTEEEVRAPIPQKQEILVEPEPLFGAPKRRRPARSIFDGFRDFQTETIRQEQELRNGGAIDKKLTTLADLFRPPIDLMHKGSFETAKECGQMQNKWLMINIQNVQDFACQCLNRDVWSNEAVKNIIREHFIFWQVYHDSEEGQRYIQFYKLGDFPYVSILDPRTGQKLVEWHQLDVSSFLDQVTGFLGEHGQLDGLSSSPPKKCARSESLIDASEDSQLEAAIRASLQETHFDSTQTKQDSRSDEESESELFSGSEEFISVCGSDEEEEVENLAKSRKSPHKDLGHRKEENRRPLTEPPVRTDPGTATNHQGLPAVDSEILEMPPEKADGVVEGIDVNGPKAQLMLRYPDGKREQITLPEQAKLLALVKHVQSKGYPNERFELLTNFPRRKLSHLDYDITLQEAGLCPQETVFVQERN
notes: UBXN7, human, wild type; also called SBP-tagged version of UBXN7; homolog of Ubx5; source: E. coli BL21 CodonPlus (DE3) RIPL, purified (Ni-NTA, SEC); not shown: SBP, C-terminal, kept
B2: Yod1-C160S (enzyme, human, UniProt Q5VVQ6 1-348, looked up)
chain: MFGPAKGRHFGVHPAPGFPGGVSQQAAGTKAGPAGAWPVGSRTDTMWRLRCKAKDGTHVLQGLSSRTRVRELQGQIAAITGIAPGGQRILVGYPPECLDLSNGDTILEDLPIQSGDMLIIEEDQTRPRSSPAFTKRGASSYVRETLPVLTRTVVPADNSSLFTSVYYVVEGGVLNPACAPEMRRLIAQIVASDPDFYSEAILGKTNQEYCDWIKRDDTWGGAIEISILSKFYQCEICVVDTQTVRIDRFGEDAGYTKRVLLIYDGIHYDPLQRNFPDPDTPPLTIFSSNDDIVLVQALELADEARRRRQFTDVNRFTLRCMVCQKGLTGQAEAREHAKETGHTNFGEV
notes: Yod1, human, with the active-site mutation C160S; also called homolog of Otu1; source: E. coli BL21 CodonPlus (DE3) RIPL, purified (Ni-NTA, SEC)
B3: Otu1-C120S-FLAG (enzyme, S. cerevisiae, UniProt P43558 1-301, looked up)
chain: MKLKVTGAGINQVVTLKQDATLNDLIEHINVDVKTMRFGYPPQRINLQGEDASLGQTQLDELGINSGEKITIESSDSNESFSLPPPQPKPKRVLKSTEMSIGGSGENVLSVHPVLDDNSSLFHAIAYGIFKQDSVRDLREMVSKEVLNNPVKFNDAILDKPNKDYAQWILKMESWGGAIEIGIISDALAVAIYVVDIDAVKIEKFNEDKFDNYILILFNGIHYDSLTMNEFKTVFNKNQPESDDVLTAALQLASNLKQTGYSFNTHKAQIKCNTCQMTFVGEREVARHAESTGHVDFGQNR
notes: Otu1, deubiquitinating enzyme of S. cerevisiae (Yod1 in mammals), with the active-site mutation C120S; pET28 with an N-terminal His6-tag and a TEV-protease cleavage site followed by a FLAG tag; source: E. coli BL21 CodonPlus (DE3) RIPL, purified (Ni-NTA, SEC)

How the values were obtained:
Settings in all cases: both partners purified
human Npl4 = biological target: T1, human Npl4 (human, UniProt Q8TAT6 1-608); test: pull-down; 1 µM UBXN7-SBP on streptavidin agarose with 1 µM p97, 1 µM human UN, 1 µM Yod1-C160S and 1 µM Ub(n)-TAIL, SEC buffer, 5 mM ATPγS, 1 h, 4 °C; eluted with 2 mM biotin; Coomassie
T1 construct: Npl4, human; The plasmid paragraph tells of Npl4 in pET21 with a C-terminal His6 or FLAG-His6 tag and the purification paragraph of an untagged UN complex; neither says which holds for the human protein; also called hNpl4; source: purified; part of the 'human UN' complex

Human p97 ATPase = biological target: T2, Human p97 ATPase (human, UniProt P55072 1-806); test: as above
T2 construct: p97 (VCP), human, wild type; also called VCP; homolog of Cdc48; source: E. coli BL21 CodonPlus (DE3) RIPL, purified (Ni-NTA, SEC)

UBXN7-SBP = biological target: B1; test: as above
Cdc48-UN ATPase complex = biological target: T3, Cdc48-UN ATPase complex (S. cerevisiae, UniProt P25694 1-835; P53044 1-361; P33755 1-580); test: pull-down; 1 µM Otu1-C120S-FLAG on anti-FLAG M2 agarose with 1 µM Cdc48, 1 µM UN and 1 µM Ub(n)-TAIL, with or without 1 µM Ubx5, SEC buffer, 5 mM ATPγS, 1 h, 4 °C; eluted with 3xFLAG peptide; fluorescence scan and Coomassie
T3 construct: Cdc48 ATPase of S. cerevisiae, wild type; Ufd1 of S. cerevisiae; Npl4 of S. cerevisiae; also called Cdc48 with the Ufd1-Npl4 (UN) complex; source: E. coli BL21 CodonPlus (DE3) RIPL, purified (Ni-NTA, SEC); Cdc48 and UN mixed; copies: 6 + +
T3 sequence (P25694 whole entry, chain 1 of 3): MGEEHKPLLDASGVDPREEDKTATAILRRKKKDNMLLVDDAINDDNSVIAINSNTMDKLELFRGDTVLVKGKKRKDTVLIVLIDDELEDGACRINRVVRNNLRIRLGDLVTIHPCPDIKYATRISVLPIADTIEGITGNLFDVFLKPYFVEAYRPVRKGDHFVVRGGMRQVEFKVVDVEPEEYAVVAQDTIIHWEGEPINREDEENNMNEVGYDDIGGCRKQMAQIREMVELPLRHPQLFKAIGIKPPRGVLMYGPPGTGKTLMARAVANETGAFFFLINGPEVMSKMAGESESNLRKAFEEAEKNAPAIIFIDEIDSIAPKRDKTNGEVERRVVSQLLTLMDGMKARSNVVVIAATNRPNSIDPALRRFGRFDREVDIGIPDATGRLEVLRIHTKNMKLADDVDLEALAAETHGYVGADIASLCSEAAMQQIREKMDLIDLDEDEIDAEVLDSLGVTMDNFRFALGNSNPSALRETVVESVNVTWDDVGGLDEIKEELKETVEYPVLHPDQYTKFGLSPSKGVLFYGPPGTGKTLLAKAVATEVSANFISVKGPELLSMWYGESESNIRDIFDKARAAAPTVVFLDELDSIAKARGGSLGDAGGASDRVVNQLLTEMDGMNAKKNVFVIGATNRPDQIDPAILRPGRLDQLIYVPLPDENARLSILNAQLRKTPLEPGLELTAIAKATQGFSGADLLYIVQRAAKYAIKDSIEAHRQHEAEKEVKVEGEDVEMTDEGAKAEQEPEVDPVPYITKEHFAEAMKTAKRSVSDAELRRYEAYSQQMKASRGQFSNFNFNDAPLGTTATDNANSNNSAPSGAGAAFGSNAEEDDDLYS
T3 sequence (P53044 whole entry, chain 2 of 3): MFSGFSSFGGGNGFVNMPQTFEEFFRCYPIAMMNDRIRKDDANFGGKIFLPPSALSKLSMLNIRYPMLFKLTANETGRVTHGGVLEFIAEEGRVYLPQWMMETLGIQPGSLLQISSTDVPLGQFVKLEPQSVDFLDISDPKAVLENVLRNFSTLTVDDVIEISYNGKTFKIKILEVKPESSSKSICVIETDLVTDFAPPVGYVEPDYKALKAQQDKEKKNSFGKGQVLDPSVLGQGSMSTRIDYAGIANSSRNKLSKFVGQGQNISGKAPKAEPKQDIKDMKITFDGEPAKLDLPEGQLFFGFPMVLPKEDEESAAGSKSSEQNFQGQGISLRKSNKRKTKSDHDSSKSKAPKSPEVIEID
T3 sequence (P33755 whole entry, chain 3 of 3): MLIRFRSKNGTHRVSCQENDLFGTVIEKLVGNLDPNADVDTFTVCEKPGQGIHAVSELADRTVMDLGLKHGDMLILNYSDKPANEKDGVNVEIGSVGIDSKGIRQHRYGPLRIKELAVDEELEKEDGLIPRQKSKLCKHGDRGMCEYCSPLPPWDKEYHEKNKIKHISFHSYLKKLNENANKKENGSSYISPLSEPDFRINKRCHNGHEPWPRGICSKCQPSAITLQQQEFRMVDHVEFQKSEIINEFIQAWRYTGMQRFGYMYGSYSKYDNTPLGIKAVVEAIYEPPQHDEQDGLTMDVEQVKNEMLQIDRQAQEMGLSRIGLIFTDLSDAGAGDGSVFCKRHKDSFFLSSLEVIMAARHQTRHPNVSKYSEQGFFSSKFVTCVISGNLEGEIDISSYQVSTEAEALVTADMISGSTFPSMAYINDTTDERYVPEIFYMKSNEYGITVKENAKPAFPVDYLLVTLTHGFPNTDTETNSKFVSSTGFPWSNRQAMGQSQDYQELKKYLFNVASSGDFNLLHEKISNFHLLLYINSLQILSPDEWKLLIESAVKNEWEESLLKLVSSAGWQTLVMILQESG

T2 sequence (P55072 whole entry): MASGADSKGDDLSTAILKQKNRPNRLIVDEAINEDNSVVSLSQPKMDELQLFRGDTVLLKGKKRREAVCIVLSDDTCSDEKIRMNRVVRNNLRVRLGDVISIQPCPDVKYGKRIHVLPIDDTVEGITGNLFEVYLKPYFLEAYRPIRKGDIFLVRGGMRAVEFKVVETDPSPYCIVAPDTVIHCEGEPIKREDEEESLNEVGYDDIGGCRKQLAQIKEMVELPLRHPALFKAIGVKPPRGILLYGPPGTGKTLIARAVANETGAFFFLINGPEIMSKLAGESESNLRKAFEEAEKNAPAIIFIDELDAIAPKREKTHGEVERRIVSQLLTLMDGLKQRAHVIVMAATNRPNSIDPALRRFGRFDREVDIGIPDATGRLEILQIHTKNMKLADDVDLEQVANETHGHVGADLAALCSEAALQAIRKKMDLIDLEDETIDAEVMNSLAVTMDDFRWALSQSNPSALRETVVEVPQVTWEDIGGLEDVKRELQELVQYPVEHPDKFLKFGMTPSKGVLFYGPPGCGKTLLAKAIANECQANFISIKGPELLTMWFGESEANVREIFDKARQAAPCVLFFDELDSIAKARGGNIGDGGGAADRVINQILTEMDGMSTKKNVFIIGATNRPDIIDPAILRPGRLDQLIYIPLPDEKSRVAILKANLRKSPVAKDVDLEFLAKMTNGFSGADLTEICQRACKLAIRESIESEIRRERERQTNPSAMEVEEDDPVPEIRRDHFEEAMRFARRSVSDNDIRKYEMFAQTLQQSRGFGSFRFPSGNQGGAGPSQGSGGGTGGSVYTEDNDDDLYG
T1 sequence (Q8TAT6 whole entry): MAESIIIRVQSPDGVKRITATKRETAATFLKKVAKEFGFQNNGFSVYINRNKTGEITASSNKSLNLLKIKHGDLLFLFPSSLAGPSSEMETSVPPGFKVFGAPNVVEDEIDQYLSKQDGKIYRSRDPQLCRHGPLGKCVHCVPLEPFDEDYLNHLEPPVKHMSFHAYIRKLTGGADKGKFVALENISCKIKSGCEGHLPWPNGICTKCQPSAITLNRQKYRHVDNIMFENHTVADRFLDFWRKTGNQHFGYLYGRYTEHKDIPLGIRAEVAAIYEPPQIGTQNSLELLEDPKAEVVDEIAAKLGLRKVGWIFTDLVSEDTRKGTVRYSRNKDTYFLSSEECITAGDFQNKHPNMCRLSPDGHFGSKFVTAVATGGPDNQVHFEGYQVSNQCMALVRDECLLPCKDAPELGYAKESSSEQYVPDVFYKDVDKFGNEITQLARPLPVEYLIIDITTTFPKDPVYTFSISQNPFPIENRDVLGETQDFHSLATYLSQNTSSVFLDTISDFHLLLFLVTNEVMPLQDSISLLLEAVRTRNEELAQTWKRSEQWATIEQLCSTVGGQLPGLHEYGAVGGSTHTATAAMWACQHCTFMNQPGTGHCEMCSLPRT

What does the source list for B1?
binding result (human Npl4): binds; binding result (Human p97 ATPase): binds

Does B2 bind (UBXN7-SBP)?
Result: binds

Does B3 bind (Cdc48-UN ATPase complex)?
Result: binds
